Laboratory results as given in patent US20190359710A1 (FRIEDRICH ALEXANDER UNIVERSIT T ERLANGEN N RNBERG, published 2019).
Where a chain is given by its changes, count along the chain named.

B1: humanized CD16-specific scFv variant 1/3 (Vk1 / VH3 frameworks, LH order, (Gly4Ser)4x linker) (scFv)
chain: DIVLTQSPSSLSASVGDRVTITCKASQSVDFDGDSFMNWYQQKPGKAPKLLIYTTSNLESGVPSRFSASGSGTDFTLTISSLQPEDFATYYCQQSNEDPYTFGQGTKVEIKRGGGGSGGGGSGGGGSGGGGSEVQLVESGGGDVQPGGSLRLSCAFSGFSLRTSGMGVGWIRQAPGKGLEWVAHIWWDDDKRYNPSVKGRFTISKDTSSNTVYLQMNSLRAEDTAVYYCAQINPAWFAYWGQGTLVTVSS
B2: triplebody hu[33-ds16-123] (other)
chain: EVQLVESGGGLIQPGGSLRLSCAASGFPLTSYGVSWVRQPPGKGLEWLGVIWGDGSTNYHSALISRFTISRDNSKNTLYLQMNSLRAEDTAVYYCARDTYYPYYAMDYWGQGTTVTVSSGGGGSGGGGSGGGGSDIQMTQSPSSLSASVGDRVTITCKASQDVSTAVAWYQQKPGKAPKLLIYSASYRYTGVPSRFSGSGSGTDFTLTISSLQPEDFATYYCQQHYSTPLTFGQGTKLEIKRGGGGSGGGGSGGGGSGGGGSDIVLTQSPSSLSASVGDRVTITCKASQSVDFDGDSFMNWYQQKPGKAPKLLIYTTSNLESGVPSRFSASGSGTDFTLTISSLQPEDFATYYCQQSNEDPYTFGCGTKVEIKRGGGGSGGGGSGGGGSGGGGSEVQLVESGGGDVQPGGSLRLSCAFSGFSLRTSGMGVGWIRQAPGKCLEWVAHIWWDDDKRYNPSVKGRFTISKDTSSNTVYLQMNSLRAEDTAVYYCAQINPAWFAYWGQGTLVTVSSGGGGSGGGGSGGGGSGGGGSEVQLVESGGGLVQPGGSLRLSCAASGFTFTDYYMSWVRQAPGKGLEWLALIRSKADGYTTEYSASVKGRFTISRDDSKNSLYLQMNSLKTEDTAVYYCARDAAYYSYYSPEGAMDYWGQGTSVTVSSGGGGSGGGGSGGGGSDIQMTQSPSSLSASVGDRVTITCKASQNVDSAVAWYQQKPGKAPKALIYSASYRYSGVPSRFSGSGSGTDFTLTISSLQPEDFATYYCQQYYSTPWTFGQGTKVEIKR
B3: candidate triplebody hu[33-ds16-ds123RK] before polishing of the sequence (other, not shown: small tags and cut ends)
chain: B2 chain with G576C, Q774C
notes: the list of removed pieces may not be complete; also called variant (f)
B4: single chain triplebody SPM-2, hu(33-ds16-ds123RK) (other)
chain: EVQLVESGGGLIQPGGSLRLSCAASGFPLTSYGVSWVRQPPGKGLEWLGVIWGDGSTNYHSALISRFTISRDNSKNTLYLQMNSLRAEDTAVYYCARDTYYPYYAMDYWGQGTTVTVSSGGGGSGGGGSGGGGSDIQMTQSPSSLSASVGDRVTITCKASQDVSTAVAWYQQKPGKAPKLLIYSASYRYTGVPSRFSGSGSGTDFTLTISSLQPEDFATYYCQQHYSTPLTFGQGTKLEIKRGGGGSGGGGSGGGGSGGGGSDIVLTQSPSSLSASVGDRVTITCKASQSVDFDGDSFMNWYQQKPGKAPKLLIYTTSNLESGVPSRFSASGSGTDFTLTISSLQPEDFATYYCQQSNEDPYTFGCGTKVEIKRGGGGSGGGGSGGGGSGGGGSEVQLVESGGGDVQPGGSLRLSCAFSGFSLRTSGMGVGWIRQAPGKCLEWVAHIWWDDDKRYNPSVKGRFTISKDTSSNTVYLQMNSLRAEDTAVYYCAQINPAWFAYWGQGTLVTVSSGGGGSGGGGSGGGGSGGGGSEVQLVESGGGLVQPGGSLRLSCAASGFTFTDYYMSWVRQAPGKCLEWLALIRSKADGYTTEYSASVKGRFTISRDDSKNSLYLQMNSLKTEDTAVYYCARDAAYYSYYSPEGAMDYWGQGTSVTVSSGGGGSGGGGSGGGGSDIQMTQSPSSLSASVGDRVTITCKASQNVDSAVAWYQQKPGKAPKALIYSASYRYSGVPSRFSGSGSGTDFTLTISSLQPEDFATYYCQQYYSTPWTFGCGTKVEIKRGGGGSHHHHHH
notes: Trispecific single-chain triplebody made of three scFvs in tandem, produced in HEK293 F cells; also called 33-ds16-ds123 (SPM-2)

Columns and labels:
[1] = target: T1, human CD16 (human, UniProt P08637 17-254); test: cytofluorimetry on CHO cells stably transfected with CD16
T1 construct: whole, on cells; also called hu CD16; CHO16-10 CD16+

[2] = target: T2, human CD123 (alpha chain of the interleukin-3 receptor) (human, UniProt P26951 19-378); test: calibrated flow cytometry on CD123-transfected HEK293 cells
T2 construct: also called 239 CD123+; HEK293.123
Method: (§1) The remaining triplebodies (a), (b), (d) and (f) from the above list were further analyzed. Equilibrium binding constants (KD) of each of the component scFvs carried in these triplebodies were determined by calibrated flow cytometry (Table 5). Thermo-stability in human serum was evaluated by incubation in human serum at 37° C. in vitro, and the binding ability to CD33, CD16 and CD123 on antigen single-positive mammalian cells was measured by FACS-analysis. Residual binding capacity (in % of the starting value) was evaluated after incubation for various lengths of time (Table 5).
(§2) In the top 2 rows the variant humanized according to AHo was used, in the bottom 2 rows the variant humanized according to RK was used. U937 cells are single-positive for CD33; CHO16-10 cells are single-positive (stably transfected) variants for hu CD16; […] are a stably transfected variant of HEK293, single-positive for CD123; MOLM13 cells are a stable, human AML-derived cell line double-positive for CD123 and CD33. n = number of independent experiments performed. Numbers in the table are arithmetic means from n separate measurements ± the Standard Error of the Mean (SEM).

[3] = target: T3, human CD33 (human, UniProt P20138 18-364); test: calibrated flow cytometry on U937 cells (CD33 single-positive)
T3 construct: whole, on cells; also called U937 CD33+
Method: as §1, §2

[4] = target: T1, human CD16; test: calibrated flow cytometry on CHO16-10 cells (CD16 single-positive)
Method: as §1, §2

[5] = target: T1, human CD16; test: affinity for CD16, method not named in the table (antigen on mammalian cells by the text)
[6] = target: T3, human CD33; test: affinity for CD33, method not named in the table (antigen on mammalian cells by the text)
[7] = target: T2, human CD123 (alpha chain of the …); test: affinity for CD123, method not named in the table (antigen on mammalian cells by the text)

T1 sequence (P08637 17-254): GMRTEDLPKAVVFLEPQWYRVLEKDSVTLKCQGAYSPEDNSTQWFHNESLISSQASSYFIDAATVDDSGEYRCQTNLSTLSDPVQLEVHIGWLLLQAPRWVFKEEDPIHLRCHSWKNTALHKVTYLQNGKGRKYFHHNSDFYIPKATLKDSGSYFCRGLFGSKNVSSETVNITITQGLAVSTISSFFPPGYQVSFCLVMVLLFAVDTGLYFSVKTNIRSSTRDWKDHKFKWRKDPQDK
T3 sequence (P20138 18-364): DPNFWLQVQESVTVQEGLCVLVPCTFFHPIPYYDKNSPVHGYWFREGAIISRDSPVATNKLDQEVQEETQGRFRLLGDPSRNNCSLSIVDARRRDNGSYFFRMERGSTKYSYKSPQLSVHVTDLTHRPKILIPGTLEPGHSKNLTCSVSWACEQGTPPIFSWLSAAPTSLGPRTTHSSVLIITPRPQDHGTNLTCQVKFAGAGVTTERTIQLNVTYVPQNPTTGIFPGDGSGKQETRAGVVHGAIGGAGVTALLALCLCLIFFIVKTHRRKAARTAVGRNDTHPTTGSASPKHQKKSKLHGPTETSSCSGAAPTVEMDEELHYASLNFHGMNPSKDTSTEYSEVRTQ
T2 sequence (P26951 19-378 limits assumed): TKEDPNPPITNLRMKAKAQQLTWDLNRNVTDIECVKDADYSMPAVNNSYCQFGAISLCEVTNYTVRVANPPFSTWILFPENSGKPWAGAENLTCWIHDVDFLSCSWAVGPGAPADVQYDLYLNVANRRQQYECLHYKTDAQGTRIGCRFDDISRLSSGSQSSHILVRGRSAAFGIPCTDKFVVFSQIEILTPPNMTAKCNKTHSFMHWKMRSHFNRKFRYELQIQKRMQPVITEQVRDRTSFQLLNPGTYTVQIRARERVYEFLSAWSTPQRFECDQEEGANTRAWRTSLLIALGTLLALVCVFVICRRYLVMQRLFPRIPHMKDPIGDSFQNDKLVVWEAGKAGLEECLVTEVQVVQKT

Row | Binder | Kd [1] [nM] | Kd [2] [nM] | Kd [3] [nM] | Kd [4] [nM] | Kd [5] [nM] | Kd [6] [nM] | Kd [7] [nM]
1 | B1 | 12.7 |  |  |  |  |  | 
2 | B2 |  | 11 | 49 | 11 | 13 | 53 | 13
3 | B3 |  | 9 | 31 | 18 |  |  | 
4 | B4 |  |  |  |  | 35 | 23 | 32
